What all share (experiment): fluorescence anisotropy competition
In data set [1] the test system is Ets-1 ETS domain WT (Mus musculus). Particulars: normo-osmotic; 10 mM TrisHCl pH 7.4, 0.15 M NaCl, 0.1 mg/ml BSA, betaine to set osmolality (0.3 osm without stress); Cy3-DNA probe displaced by unlabeled DNA; binding ….
The next data set deals with PU.1/Ets-1 H3 chimera. Particulars: 10 mM TrisHCl pH 7.4, 0.15 M NaCl, 0.1 mg/ml BSA, betaine to set osmolality (0.3 osm without stress); Cy3-DNA probe displaced by unlabeled DNA; binding ….
Another data set concerns PU.1/Ets-1 H2 chimera. Particulars: 10 mM TrisHCl pH 7.4, 0.15 M NaCl, 0.1 mg/ml BSA, betaine to set osmolality (0.3 osm without stress); Cy3-DNA probe displaced by unlabeled DNA; binding ….
Data set [2] concerns PU.1 ETS domain WT (PU.1ΔN167). Particulars: 10 mM TrisHCl pH 7.4, 0.15 M NaCl, 0.1 mg/ml BSA, betaine to set osmolality (0.3 osm without stress), Cy3-DNA probe displaced by unlabeled DNA.
A further data set deals with PU.1/Ets-1 S3 chimera. Conditions: 0.1 mg/ml BSA, betaine to set osmolality (0.3 osm without stress), Cy3-DNA probe displaced by unlabeled DNA.
The subject of the next data set is PU.1/Ets-1 wing chimera. Conditions: 10 mM TrisHCl pH 7.4, 0.15 M NaCl, 0.1 mg/ml BSA, betaine to set osmolality (0.3 osm without stress); Cy3-DNA probe displaced by unlabeled DNA; binding ….
A further data set concerns PU.1/Ets-1 loop chimera. Particulars: 10 mM TrisHCl pH 7.4, 0.15 M NaCl, 0.1 mg/ml BSA, betaine to set osmolality (0.3 osm without stress); Cy3-DNA probe displaced by unlabeled DNA; binding ….

On to “AGC high-affinity PU.1 site, 23-bp duplex”, for which the Kd (usually the constant that tells how readily two partners part at equilibrium) in data set [1] is 0.6 nM; in the data set on PU.1/Ets-1 H3 chimera, 22 nM; in the data set with PU.1/Ets-1 H2 chimera, 0.8 nM; in data set [2] (binding …) it was 0.34 nM; with PU.1/Ets-1 S3 chimera (10 mM TrisHCl pH 7.4, 0.15 M NaCl, binding …), 0.49 nM; in the data set with PU.1/Ets-1 wing chimera, 1.6 nM. Further, in the data set on PU.1/Ets-1 loop chimera, the Kd was 1.3 nM.
For the substance SC1 optimal Ets-1 site, the Kd in data set [1] stood at 0.17 nM.
In the case of low-affinity PU.1 site, 23-bp duplex, the binding signal stood at 0.2 in data set [2] (may replot earlier WT data, scale: fold affinity vs S3 chimera on the same low-affinity DNA) and 5 in the data set with PU.1/Ets-1 S3 chimera (weaker than S3 chimera on N1, 10 mM TrisHCl pH 7.4, 0.15 M NaCl, scale: fold stronger than WT PU.1 on the same low-affinity DNA).

These data come from paper PMC6237740.
